According to patent US20210171630A1 (MacroGenics, published 2021):

Tests used:
[1] = molecular target: T1, Human CD16A V158F, His tagged (R&D Systems) (human, UniProt P08637 17-208); assay: SPR (ProteOn); CD16-His immobilized via anti-PentaHis, diabody passed over
T1 construct: Bought (R&D Systems); also called CD16-His tagged molecules; not shown: His tag
Description: (§1) A ProteOn analysis was conducted to assess the binding of the CD16 Binding Domains of the constructed diabodies to CD16-His tagged molecules (R&D Systems) that had been immobilized on a chip. The CD16 molecules were immobilized via an anti-PentaHis antibody, followed by incubation incubation with the diabodies.

[2] = molecular target: T2, Human CD16A 158V, His tagged (R&D Systems) (human, UniProt P08637 17-208); assay: as above
T2 construct: Bought (R&D Systems); also called CD16-His tagged molecules; not shown: His tag
T2 sequence (P08637 17-208 F176V limits assumed): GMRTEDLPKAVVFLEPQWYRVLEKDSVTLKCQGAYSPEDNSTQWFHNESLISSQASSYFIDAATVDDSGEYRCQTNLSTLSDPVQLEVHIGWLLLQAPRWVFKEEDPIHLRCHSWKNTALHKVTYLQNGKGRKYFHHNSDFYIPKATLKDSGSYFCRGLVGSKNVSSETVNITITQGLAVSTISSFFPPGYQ
Description: as §1

[3] = molecular target: T3, Human CD16B, His tagged (R&D Systems) (human, UniProt O75015 17-200); assay: as above
T3 construct: Bought (R&D Systems); also called CD16-His tagged molecules; not shown: His tag
T3 sequence (O75015 17-200 limits assumed): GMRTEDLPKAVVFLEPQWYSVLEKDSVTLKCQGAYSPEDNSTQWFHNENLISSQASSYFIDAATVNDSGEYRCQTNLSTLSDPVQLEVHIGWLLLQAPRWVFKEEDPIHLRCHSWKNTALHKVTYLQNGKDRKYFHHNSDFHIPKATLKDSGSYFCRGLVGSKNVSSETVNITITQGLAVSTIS
Description: as §1

[4] = molecular target: T4, Human CD16A 158F (labeled with Avitag) (human, UniProt P08637 17-208); assay: SPR (BIACORE); diabody captured on goat F(ab')2 anti-human Fc, CD16A-Avitag passed over; 1:1 fit
T4 construct: also called human CD16A V/F molecules; not shown: Avitag
T4 sequence (P08637 17-208 limits assumed): as the sequence (P08637 17-208 F176V limits assumed) above, with V160F counted along it

[5] = molecular target: T5, Human CD16A 158V (labeled with Avitag) (human, UniProt P08637 17-208); assay: as above
T5 construct: also called human CD16A V/F molecules; CD16 158V allotype; not shown: Avitag
T5 sequence (P08637 17-208 F176V limits assumed): as the sequence (P08637 17-208 F176V limits assumed) above

[6] = molecular target: T6, human CD16A on the surface of NK cells (human, UniProt P08637 17-254); assay: flow cytometry, whole blood of donor D48353, gated lymphocyte population: αhFc APC (% positive)
T6 construct: whole, on cells; also called CD16A-expressing cells of the gated lymphocyte population; human CD16 on NK cells
T6 sequence (P08637 17-254): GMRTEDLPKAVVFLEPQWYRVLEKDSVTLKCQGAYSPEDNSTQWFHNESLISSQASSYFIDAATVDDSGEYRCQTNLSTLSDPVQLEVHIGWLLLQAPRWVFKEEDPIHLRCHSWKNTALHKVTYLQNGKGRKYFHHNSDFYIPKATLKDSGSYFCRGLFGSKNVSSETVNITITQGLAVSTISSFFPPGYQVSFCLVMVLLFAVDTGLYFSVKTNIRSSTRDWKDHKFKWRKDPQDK

[7] = molecular target: T6, human CD16A on the surface of NK cells; assay: flow cytometry, whole blood of donor D59780, NK cells: CD56 APC / αhFc PE double-positive cells (%)
Description: Following incubation, the cells were labled with: anti-CD56-allophycocyanin (CD56 APC, NK cell marker), anti-CD66b-fluorescein isothiocyanate (CD66b FITC, neutrophil cell marker) and anti-CD3-peridinin chlorophyll protein-Cy5.5 (CD3 PerCP Cy5.5, T-cell marker), and anti-humanFc-Phycoerythrin (αhFc PE) to detect diabody binding and the cell surface. The labeled cells were analyzed by flow cytometry gated on NK cells.

[8] = molecular target: T7, human CD16B of neutrophils (human, UniProt O75015 17-200); assay: flow cytometry, whole blood of donor D59780, neutrophils: CD66b FITC / αhFc PE double-positive cells (%)
T7 construct: whole, on cells; also called CD16B-expressing cells of the gated granulocyte population
T7 sequence (O75015 17-200): as the sequence (O75015 17-200 limits assumed) above

[9] = molecular target: T7, human CD16B of neutrophils; assay: flow cytometry, whole blood of donor D48353, gated granulocyte population (CD66b PerCP Cy5.5): αhFc APC (% positive)

T1 sequence (P08637 17-208 limits assumed, stated change not applied): as the sequence (P08637 17-208 F176V limits assumed) above, with V160F counted along it

B1: DART-G (bispecific antibody)
chain 1: QSALTQPPSASGSPGQSVTISCTGTSSDVGGYNYVSWYQHHPGKAPKLIISEVNNRPSGVPDRFSGSKSGNTASLTVSGLQAEDEAEYYCSSYTDIHNFVFGGGTKLTVLGGGSGGGGQVQLVQSGAEVKKPGASVKVSCKASGYTFTSSAMHWVRQAPGQGLEWMGYINHYNDGIKYNERFKGRVTITADKSTSTAYMELSSLRSEDTAVYYCATGYRYASWFASWGQGTLVTVSSASTKGEVAACEKEVAALEKEVAALEKEVAALEKGGGDKTHTCPPCPAPEAAGGPSVFLFPPKPKDTLMISRTPEVTCVVVDVSHEDPEVKFNWYVDGVEVHNAKTKPREEQYNSTYRVVSVLTVLHQDWLNGKEYKCKVSNKALPAPIEKTISKAKGQPREPQVYTLPPSREEMTKNQVSLWCLVKGFYPSDIAVEWESNGQPENNYKTTPPVLDSDGSFFLYSKLTVDKSRWQQGNVFSCSVMHEALHNHYTQKSLSLSPGK
chain 2: EIVLTQSPATLSVSPGERATLSCRASQNIGTSIHWYQQKPDQSPKLLIKSVSESISGVPSRFSGSGSGTDFTLTINSLEAEDFATYYCQQSNSWPLTFGQGTKLEIKGGGSGGGGQVQLQESGPGLVKPSQTLSLSCTVSGGSSSSGAHYWSWIRQYPGKGLEWIGYIHYSGNTYYNPSLKSRITISQHTSENQFSLKLNSVTVADTAVYYCARGTRLRTLRNAFDIWGQGTLVTVSSASTKGKVAACKEKVAALKEKVAALKEKVAALKE
chain 3: not shown
notes: Three-chain diabody; hCD16-M2 (VH1) x A32; also called DART-G (hCD16-M2)
[1]
  Kd: 1.9 nM
[2]
  Kd: 0.8 nM
[3]
  Kd: 2.6 nM
[4]
  Kd: 2.6 nM
[5]
  Kd: 2.2 nM
[6]
  EC50 (read off the curve): ~0.03 µg/mL
[7]
  EC50 (read off the curve): ~0.008 µg/mL
[8]
  EC50 (read off the curve): ~0.1 µg/mL
[9]
  EC50 (read off the curve): ~0.2 µg/mL

B2: DART-F (bispecific antibody)
chain 1: QSALTQPPSASGSPGQSVTISCTGTSSDVGGYNYVSWYQHHPGKAPKLIISEVNNRPSGVPDRFSGSKSGNTASLTVSGLQAEDEAEYYCSSYTDIHNFVFGGGTKLTVLGGGSGGGGEVQLVESGGGLVKPGGSLRLSCAASGFTFSNYGMSWVRQAPGKGLEWVATISGGGSYTFYPDSVKGRFTISRDNAKNSLYLQMNSLRTEDTALYYCVRQSARAPEPYWGQGTLVTVSSASTKGEVAACEKEVAALEKEVAALEKEVAALEKGGGDKTHTCPPCPAPEAAGGPSVFLFPPKPKDTLMISRTPEVTCVVVDVSHEDPEVKFNWYVDGVEVHNAKTKPREEQYNSTYRVVSVLTVLHQDWLNGKEYKCKVSNKALPAPIEKTISKAKGQPREPQVYTLPPSREEMTKNQVSLWCLVKGFYPSDIAVEWESNGQPENNYKTTPPVLDSDGSFFLYSKLTVDKSRWQQGNVFSCSVMHEALHNHYTQKSLSLSPGK
chain 2: DIQMTQSPSFLSASVGDRVTITCRASQNVGTHVAWYQQKPGKAPKSLLYSASYRYSGVPSRFSGSGSGTDFTLTISSLQSEDIATYYCQQYKSYPLTFGQGTKLEIKGGGSGGGGQVQLQESGPGLVKPSQTLSLSCTVSGGSSSSGAHYWSWIRQYPGKGLEWIGYIHYSGNTYYNPSLKSRITISQHTSENQFSLKLNSVTVADTAVYYCARGTRLRTLRNAFDIWGQGTLVTVSSASTKGKVAACKEKVAALKEKVAALKEKVAALKE
chain 3: not shown
notes: Three-chain diabody; hCD16-M1 x A32; also called DART-F (hCD16-M1)
[1]
  Kd: 0.1 nM
[2]
  Kd: 0.1 nM
[3]
  Kd: 0.4 nM
[4]
  Kd: 0.2 nM
[5]
  Kd: 0.3 nM
[6]
  EC50 (read off the curve): ~0.003 µg/mL
[7]
  EC50 (read off the curve): ~0.0002 µg/mL

B3: DART-H (bispecific antibody)
chain 1: DIVMTQSPDSLAVSPGERATIHCKSSQTLLYSSNNRHSIAWYQQRPGQPPKLLLYWASMRLSGVPDRFSGSGSGTDFTLTINNLQAEDVAIYYCHQYSSHPPTFGHGTRVEIKGGGSGGGGEVQLVESGGGLVKPGGSLRLSCAASGFTFSNYGMSWVRQAPGKGLEWVATISGGGSYTFYPDSVKGRFTISRDNAKNSLYLQMNSLRTEDTALYYCVRQSARAPEPYWGQGTLVTVSSASTKGEVAACEKEVAALEKEVAALEKEVAALEKGGGDKTHTCPPCPAPEAAGGPSVFLFPPKPKDTLMISRTPEVTCVVVDVSHEDPEVKFNWYVDGVEVHNAKTKPREEQYNSTYRVVSVLTVLHQDWLNGKEYKCKVSNKALPAPIEKTISKAKGQPREPQVYTLPPSREEMTKNQVSLWCLVKGFYPSDIAVEWESNGQPENNYKTTPPVLDSDGSFFLYSKLTVDKSRWQQGNVFSCSVMHEALHNHYTQKSLSLSPGK
chain 2: DIQMTQSPSFLSASVGDRVTITCRASQNVGTHVAWYQQKPGKAPKSLLYSASYRYSGVPSRFSGSGSGTDFTLTISSLQSEDIATYYCQQYKSYPLTFGQGTKLEIKGGGSGGGGQVQLVQSGGGVFKPGGSLRLSCEASGFTFTEYYMTWVRQAPGKGLEWLAYISKNGEYSKYSPSSNGRFTISRDNAKNSVFLQLDRLSADDTAVYYCARADGLTYFSELLQYIFDLWGQGARVTVSSASTKGKVAACKEKVAALKEKVAALKEKVAALKE
chain 3: not shown
notes: Three-chain diabody; hCD16-M1 x 7B2
[1]
  Kd: 0.04 nM
[2]
  Kd: 0.1 nM
[3]
  Kd: 0.4 nM

B4: DART-4 (bispecific antibody)
chain 1: DIVMTQSPDSLAVSPGERATIHCKSSQTLLYSSNNRHSIAWYQQRPGQPPKLLLYWASMRLSGVPDRFSGSGSGTDFTLTINNLQAEDVAIYYCHQYSSHPPTFGHGTRVEIKGGGSGGGGQVTLRESGPALVKPTQTLTLTCTFSGFSLSTSGMGVGWIRQPPGKALEWLAHIWWDDDKRYNPALKSRLTISKDTSKNQVVLTMTNMDPVDTATYYCAQINPAWFAYWGQGTLVTVSSASTKGEVAACEKEVAALEKEVAALEKEVAALEKGGGDKTHTCPPCPAPEAAGGPSVFLFPPKPKDTLMISRTPEVTCVVVDVSHEDPEVKFNWYVDGVEVHNAKTKPREEQYNSTYRVVSVLTVLHQDWLNGKEYKCKVSNKALPAPIEKTISKAKGQPREPQVYTLPPSREEMTKNQVSLWCLVKGFYPSDIAVEWESNGQPENNYKTTPPVLDSDGSFFLYSKLTVDKSRWQQGNVFSCSVMHEALHNHYTQKSLSLSPGK
chain 2: DIVMTQSPDSLAVSLGERATINCKASQSVDFDGDSFMNWYQQKPGQPPKLLIYTTSNLESGVPDRFSGSGSGTDFTLTISSLQAEDVAVYYCQQSNEDPYTFGQGTKLEIKGGGSGGGGQVQLVQSGGGVFKPGGSLRLSCEASGFTFTEYYMTWVRQAPGKGLEWLAYISKNGEYSKYSPSSNGRFTISRDNAKNSVFLQLDRLSADDTAVYYCARADGLTYFSELLQYIFDLWGQGARVTVSSASTKGKVAACKEKVAALKEKVAALKEKVAALKE
chain 3: not shown
[1]
  Kd: 76.8 nM
[2]
  Kd: 23.3 nM
  kon: 290000 M⁻¹ s⁻¹
[3]
  Kd: 7.8 nM

B5: DART-Z (bispecific antibody)
chain 1: QSALTQPPSASGSPGQSVTISCTGTSSDVGGYNYVSWYQHHPGKAPKLIISEVNNRPSGVPDRFSGSKSGNTASLTVSGLQAEDEAEYYCSSYTDIHNFVFGGGTKLTVLGGGSGGGGEEVQLVQSGAEVKKPGESLKVSCKASGYTFTSYYMHWVRQAPGQGLEWMGIINPSGGSTSYAQKFQGRVTMTRDTSTSTVYMELSSLRSEDTAVYYCARGSAYYYDFADYWGQGTLVTVSSASTKGEVAACEKEVAALEKEVAALEKEVAALEK
chain 2: QPVLTQPSSVSVAPGQTATISCGGHNIGSKNVHWYQQRPGQSPVLVIYQDNKRPSGIPERFSGSNSGNTATLTISGTQAMDEADYYCQVWDNYSVLFGGGTKLTVLGGGSGGGGQVQLQESGPGLVKPSQTLSLSCTVSGGSSSSGAHYWSWIRQYPGKGLEWIGYIHYSGNTYYNPSLKSRITISQHTSENQFSLKLNSVTVADTAVYYCARGTRLRTLRNAFDIWGQGTLVTVSSASTKGKVAACKEKVAALKEKVAALKEKVAALKE
notes: also called 4-LS21
[1]
  Kd: 15.2 nM
[2]
  Kd: 15.7 nM
